Experiments:
[1] = western blot, erythrocytes of LPS-injected mice; conditions: glycan gained; control: LPS + PBS
[2] = RIPK1 protein level, MEFs; conditions: glycan lost; control: untreated
[3] = western blot, MEFs, 4h TSZ; conditions: glycan lost; control: TSZ alone
[4] = RIPK1 protein level, HT-29 or HEK293; conditions: glycan lost; control: untreated / control knockdown

B1: RIPK1 (mouse): TMG (protein)
parent chain: MQPDMSLDNIKMASSDLLEKTDLDSGGFGKVSLCYHRSHGFVILKKVYTGPNRAEYNEVLLEEGKMMHRLRHSRVVKLLGIIIEEGNYSLVMEYMEKGNLMHVLKTQIDVPLSLKGRIIVEAIEGMCYLHDKGVIHKDLKPENILVDRDFHIKIADLGVASFKTWSKLTKEKDNKQKEVSSTTKKNNGGTLYYMAPEHLNDINAKPTEKSDVYSFGIVLWAIFAKKEPYENVICTEQFVICIKSGNRPNVEEILEYCPREIISLMERCWQAIPEDRPTFLGIEEEFRPFYLSHFEEYVEEDVASLKKEYPDQSPVLQRMFSLQHDCVPLPPSRSNSEQPGSLHSSQGLQMGPVEESWFSSSPEYPQDENDRSVQAKLQEEASYHAFGIFAEKQTKPQPRQNEAYNREEERKRRVSHDPFAQQRARENIKSAGARGHSDPSTTSRGIAVQQLSWPATQTVWNNGLYNQHGFGTTGTGVWYPPNLSQMYSTYKTPVPETNIPGSTPTMPYFSGPVADDLIKYTIFNSSGIQIGNHNYMDVGLNSQPPNNTCKEESTSRHQAIFDNTTSLTDEHLNPIRENLGRQWKNCARKLGFTESQIDEIDHDYERDGLKEKVYQMLQKWLMREGTKGATVGKLAQALHQCCRIDLLNHLIRASQS
other: RIPK1 Ser166 phosphorylation [1]: decreases

B2: RIPK1 (mouse): OSMI-4 (protein)
parent chain: MQPDMSLDNIKMASSDLLEKTDLDSGGFGKVSLCYHRSHGFVILKKVYTGPNRAEYNEVLLEEGKMMHRLRHSRVVKLLGIIIEEGNYSLVMEYMEKGNLMHVLKTQIDVPLSLKGRIIVEAIEGMCYLHDKGVIHKDLKPENILVDRDFHIKIADLGVASFKTWSKLTKEKDNKQKEVSSTTKKNNGGTLYYMAPEHLNDINAKPTEKSDVYSFGIVLWAIFAKKEPYENVICTEQFVICIKSGNRPNVEEILEYCPREIISLMERCWQAIPEDRPTFLGIEEEFRPFYLSHFEEYVEEDVASLKKEYPDQSPVLQRMFSLQHDCVPLPPSRSNSEQPGSLHSSQGLQMGPVEESWFSSSPEYPQDENDRSVQAKLQEEASYHAFGIFAEKQTKPQPRQNEAYNREEERKRRVSHDPFAQQRARENIKSAGARGHSDPSTTSRGIAVQQLSWPATQTVWNNGLYNQHGFGTTGTGVWYPPNLSQMYSTYKTPVPETNIPGSTPTMPYFSGPVADDLIKYTIFNSSGIQIGNHNYMDVGLNSQPPNNTCKEESTSRHQAIFDNTTSLTDEHLNPIRENLGRQWKNCARKLGFTESQIDEIDHDYERDGLKEKVYQMLQKWLMREGTKGATVGKLAQALHQCCRIDLLNHLIRASQS
expression_or_secretion [2]: no change
other: RIPK1 Ser166 phosphorylation [3]: increases

B3: RIPK1 (hRIPK1): OGT knockdown (protein)
parent chain: MQPDMSLNVIKMKSSDFLESAELDSGGFGKVSLCFHRTQGLMIMKTVYKGPNCIEHNEALLEEAKMMNRLRHSRVVKLLGVIIEEGKYSLVMEYMEKGNLMHVLKAEMSTPLSVKGRIILEIIEGMCYLHGKGVIHKDLKPENILVDNDFHIKIADLGLASFKMWSKLNNEEHNELREVDGTAKKNGGTLYYMAPEHLNDVNAKPTEKSDVYSFAVVLWAIFANKEPYENAICEQQLIMCIKSGNRPDVDDITEYCPREIISLMKLCWEANPEARPTFPGIEEKFRPFYLSQLEESVEEDVKSLKKEYSNENAVVKRMQSLQLDCVAVPSSRSNSATEQPGSLHSSQGLGMGPVEESWFAPSLEHPQEENEPSLQSKLQDEANYHLYGSRMDRQTKQQPRQNVAYNREEERRRRVSHDPFAQQRPYENFQNTEGKGTAYSSAASHGNAVHQPSGLTSQPQVLYQNNGLYSSHGFGTRPLDPGTAGPRVWYRPIPSHMPSLHNIPVPETNYLGNTPTMPFSSLPPTDESIKYTIYNSTGIQIGAYNYMEIGGTSSSLLDSTNTNFKEEPAAKYQAIFDNTTSLTDKHLDPIRENLGKHWKNCARKLGFTQSQIDEIDHDYERDGLKEKVYQMLQKWVMREGIKGATVGKLAQALHQCSRIDLLSSLIYVSQN
expression_or_secretion [4]: no change
